These are literature values, as cited in paper PMC9607845.

Where two headings read alike, the source gives them in different places.

Data set [1] addresses SMRT peptide (Homo sapiens) (UniProt Q9Y618).
For data set [2], the target named is SMRT SMRT peptide (Homo sapiens) (UniProt Q9Y618).
Data set [3] addresses BCOR BCOR peptide (Homo sapiens) (UniProt Q6W2J9).
For data set [4], the target named is BCOR peptide (Homo sapiens) (UniProt Q6W2J9).
In data set [5] the target is Mig6 segment 1 peptide segment 1 (Homo sapiens) (UniProt Q9UJM3).
Mig6 segment 1 peptide segment 1 (Homo sapiens), sequence (Q9UJM3 334-363): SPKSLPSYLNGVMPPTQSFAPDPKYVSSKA
Data set [6] has as its target Mig6 segment 1 peptide (Homo sapiens) (UniProt Q9UJM3).
Data set [7] has as its target p63 peptide (Homo sapiens) (UniProt Q9H3D4).
The target in data set [8] is p73 peptide (Homo sapiens) (UniProt O15350).
p73 peptide (Homo sapiens), sequence (O15350 whole entry): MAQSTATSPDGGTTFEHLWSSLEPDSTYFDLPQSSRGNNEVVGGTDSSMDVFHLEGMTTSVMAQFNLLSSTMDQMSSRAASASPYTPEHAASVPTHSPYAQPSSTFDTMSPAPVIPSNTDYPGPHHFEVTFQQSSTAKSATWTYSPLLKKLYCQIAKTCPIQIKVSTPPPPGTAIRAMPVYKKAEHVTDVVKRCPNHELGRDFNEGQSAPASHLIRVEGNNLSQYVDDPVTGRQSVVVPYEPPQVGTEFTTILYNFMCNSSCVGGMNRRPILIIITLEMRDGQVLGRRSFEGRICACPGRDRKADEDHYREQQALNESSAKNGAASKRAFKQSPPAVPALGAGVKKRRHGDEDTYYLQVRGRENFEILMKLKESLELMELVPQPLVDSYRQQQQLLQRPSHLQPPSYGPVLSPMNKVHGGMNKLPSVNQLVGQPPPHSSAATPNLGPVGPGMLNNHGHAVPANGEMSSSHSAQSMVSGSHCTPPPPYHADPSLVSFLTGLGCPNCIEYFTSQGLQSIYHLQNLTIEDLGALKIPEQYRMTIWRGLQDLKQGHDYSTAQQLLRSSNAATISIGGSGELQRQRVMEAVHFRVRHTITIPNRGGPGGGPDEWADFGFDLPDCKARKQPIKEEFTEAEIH
In data set [9] the target is p63 peptide (Homo sapiens) (UniProt Q9H3D4). The source holds these as a separate data set.
p63 peptide (Homo sapiens), sequence (Q9H3D4 whole entry): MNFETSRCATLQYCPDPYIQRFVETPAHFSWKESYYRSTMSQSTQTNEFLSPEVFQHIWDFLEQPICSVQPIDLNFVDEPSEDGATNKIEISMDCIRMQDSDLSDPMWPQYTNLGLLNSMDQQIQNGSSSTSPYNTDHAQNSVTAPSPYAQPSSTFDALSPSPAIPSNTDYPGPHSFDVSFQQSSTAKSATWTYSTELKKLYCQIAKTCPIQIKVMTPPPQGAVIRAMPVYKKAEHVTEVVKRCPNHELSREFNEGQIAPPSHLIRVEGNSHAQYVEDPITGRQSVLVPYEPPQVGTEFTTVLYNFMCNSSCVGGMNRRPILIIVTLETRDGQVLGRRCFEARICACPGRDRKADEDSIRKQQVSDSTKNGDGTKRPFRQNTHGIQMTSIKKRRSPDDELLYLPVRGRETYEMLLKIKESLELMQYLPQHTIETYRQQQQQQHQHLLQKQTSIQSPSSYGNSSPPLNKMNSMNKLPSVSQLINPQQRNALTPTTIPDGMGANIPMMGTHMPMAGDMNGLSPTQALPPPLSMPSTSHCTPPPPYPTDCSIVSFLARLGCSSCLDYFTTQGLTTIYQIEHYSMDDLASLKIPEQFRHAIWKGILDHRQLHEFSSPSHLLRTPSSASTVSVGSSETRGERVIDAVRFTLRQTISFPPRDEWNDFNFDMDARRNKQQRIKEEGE
Data set [10] addresses p73 peptide (Homo sapiens) (UniProt O15350). The source holds these as a separate data set.

MDM2 MDM2N, sequence (Q00987 17-125): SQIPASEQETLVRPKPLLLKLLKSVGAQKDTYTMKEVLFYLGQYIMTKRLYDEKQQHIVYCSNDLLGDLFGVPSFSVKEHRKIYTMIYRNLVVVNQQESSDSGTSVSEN
Mig6 segment 1 peptide (Homo sapiens), sequence (Q9UJM3 336-364): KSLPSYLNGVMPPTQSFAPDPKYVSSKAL
BCOR peptide (Homo sapiens), sequence (Q6W2J9 whole entry): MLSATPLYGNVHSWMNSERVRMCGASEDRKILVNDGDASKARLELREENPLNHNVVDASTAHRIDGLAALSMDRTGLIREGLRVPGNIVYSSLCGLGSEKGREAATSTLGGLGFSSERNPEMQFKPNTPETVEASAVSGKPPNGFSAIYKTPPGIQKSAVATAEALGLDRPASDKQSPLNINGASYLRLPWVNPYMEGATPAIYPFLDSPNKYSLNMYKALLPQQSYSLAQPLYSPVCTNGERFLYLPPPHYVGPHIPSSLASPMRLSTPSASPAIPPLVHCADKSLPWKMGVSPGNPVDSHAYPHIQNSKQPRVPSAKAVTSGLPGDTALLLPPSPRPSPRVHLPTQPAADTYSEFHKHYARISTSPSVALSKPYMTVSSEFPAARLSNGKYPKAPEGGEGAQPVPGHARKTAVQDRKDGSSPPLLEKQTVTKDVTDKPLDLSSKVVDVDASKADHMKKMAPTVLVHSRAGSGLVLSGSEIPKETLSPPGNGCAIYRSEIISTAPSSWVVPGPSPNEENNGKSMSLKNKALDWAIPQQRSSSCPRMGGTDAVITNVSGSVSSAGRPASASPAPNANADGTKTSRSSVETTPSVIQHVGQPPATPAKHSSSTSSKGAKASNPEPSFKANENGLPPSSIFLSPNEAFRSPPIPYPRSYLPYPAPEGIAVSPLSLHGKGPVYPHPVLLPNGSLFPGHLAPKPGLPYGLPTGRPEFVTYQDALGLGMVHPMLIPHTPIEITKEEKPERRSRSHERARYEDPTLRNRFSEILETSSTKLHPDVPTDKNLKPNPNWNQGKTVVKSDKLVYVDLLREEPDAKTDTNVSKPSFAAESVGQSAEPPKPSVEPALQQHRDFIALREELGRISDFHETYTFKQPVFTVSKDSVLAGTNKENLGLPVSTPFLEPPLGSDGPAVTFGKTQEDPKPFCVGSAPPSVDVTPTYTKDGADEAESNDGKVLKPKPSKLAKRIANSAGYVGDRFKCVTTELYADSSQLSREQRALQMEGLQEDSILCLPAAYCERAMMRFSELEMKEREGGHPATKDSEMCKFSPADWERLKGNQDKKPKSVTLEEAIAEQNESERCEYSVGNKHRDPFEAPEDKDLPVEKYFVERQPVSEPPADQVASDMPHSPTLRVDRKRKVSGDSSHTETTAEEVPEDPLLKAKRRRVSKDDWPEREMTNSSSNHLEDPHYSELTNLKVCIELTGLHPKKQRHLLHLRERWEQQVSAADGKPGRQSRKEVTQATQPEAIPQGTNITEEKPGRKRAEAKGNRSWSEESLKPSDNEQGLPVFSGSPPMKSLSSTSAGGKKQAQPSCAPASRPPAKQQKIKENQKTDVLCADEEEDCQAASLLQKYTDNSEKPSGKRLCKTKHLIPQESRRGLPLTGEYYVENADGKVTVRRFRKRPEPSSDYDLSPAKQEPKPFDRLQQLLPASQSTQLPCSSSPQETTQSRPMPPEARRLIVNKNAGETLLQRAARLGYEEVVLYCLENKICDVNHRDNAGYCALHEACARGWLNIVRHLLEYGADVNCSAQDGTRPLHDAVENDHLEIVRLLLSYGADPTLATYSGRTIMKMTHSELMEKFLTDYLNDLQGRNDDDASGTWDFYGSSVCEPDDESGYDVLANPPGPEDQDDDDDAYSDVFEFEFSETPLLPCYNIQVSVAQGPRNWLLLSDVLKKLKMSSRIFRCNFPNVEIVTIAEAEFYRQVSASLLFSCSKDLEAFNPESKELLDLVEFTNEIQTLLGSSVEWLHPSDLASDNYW

Consider Bcl6 BTB (from UniProt P41182), for which the dissociation constant (Kd) (usually a measure of binding affinity in units of concentration) is 11 µM in [1], 11 µM in [2], 1.3 µM in data set [3] and 1.3 µM in data set [4].

Consider “EGFR kinase domain C-lobe (from UniProt P00533)”, for which the Kd in [5] and in [6] was 13 µM in each case.

For MDM2 MDM2N (from UniProt Q00987), the Kd in data set [7] is 26 µM; in data set [8], 1.4 µM.

“MDM2 N-terminal domain (from UniProt Q00987)”: the Kd was 26 µM in data set [9] and 1.4 µM in data set [10].
